Our source for the Kinetics koff and Kinetics kon values is patent publication US10494415B2, “Insulin-like growth factor 2 (IGF2) binding agents” (Cancer Research Technology Limited, priority 2015, dated 2019).

Residue numbers refer to the chain shown, from its start. Numbers in names are those of the source.

B1: AB5 Q1569R P1597K S1602H G1603K: domain 11 AB5 + Q1569R, P1597K, S1602H, G1603K (protein)
chain: MKSNEHDDCQVTNPSTGHLFDLSSLSGRAGFTAAYAKGWGVYMSICGENENCPPGVGACFGRTRISVGKANKRLRYVDQVLQLVYKDGSKCPSKHKLSYKSVISFVCRPEAGPTNRPMLISLDKQTCTLFFSWHTPLACEQATECSV
B2: AB3 P1597H HI^23D: domain 11 AB3 + P1597H + HI loop of clone 23D (HFQS) (protein)
chain: MKSNEHDDCQVTNPSTGHLFDLSSLSGRAGFTAAYSKSGVVYMSICGENENCPPGVGACFGQTRISVGKANKRLRYVDQVLQLVYKDGSHCPSKSGLSYKSVISFVCRPEAGPTNRPMLISLHFQSCTLFFSWHTPLACEQATECSV
B3: AB5 P1597S: domain 11 AB5 + P1597S (protein)
chain: B1 chain with R62Q, K90S, H95S, K96G
B4: AB3 Q1569R P1597K S1602H G1603K: domain 11 AB3 + Q1569R, P1597K, S1602H, G1603K (protein)
chain: B1 chain with A36S, G38S, W39G, G40V
B5: AB5 P1597K S1602H: domain 11 AB5 + P1597K, S1602H (protein)
chain: B1 chain with R62Q, K96G
B6: AB5 P1597L: domain 11 AB5 + P1597L (protein)
chain: B1 chain with R62Q, K90L, H95S, K96G
B7: AB5 Q1569R P1597H K1631W: domain 11 AB5 + Q1569R, P1597H, K1631W (protein)
chain: B1 chain with K90H, H95S, K96G, K124W
B8: AB5 P1597N: domain 11 AB5 + P1597N (protein)
chain: B1 chain with R62Q, K90N, H95S, K96G
B9: AB5 P1597H S1602H: domain 11 AB5 + P1597H, S1602H (protein)
chain: B1 chain with R62Q, K90H, K96G
B10: AB3 Q1569R P1597K S1602H: domain 11 AB3 + Q1569R, P1597K, S1602H (protein)
chain: B1 chain with A36S, G38S, W39G, G40V, K96G
B11: AB5 HI^23D: domain 11 AB5 + HI loop of clone 23D (HFQS) (protein)
chain: B2 chain with S36A, S38G, G39W, V40G, H90P
B12: AB5 Q1569R P1597H: domain 11 AB5 + Q1569R, P1597H (protein)
chain: B1 chain with K90H, H95S, K96G
B13: AB5 Q1569R P1597K S1602H: domain 11 AB5 + Q1569R, P1597K, S1602H (protein)
chain: B1 chain with K96G
B14: AB3 Q1569R P1597H S1602H: domain 11 AB3 + Q1569R, P1597H, S1602H (protein)
chain: B2 chain with Q62R, S95H, H123D, F124K, S126T
B15: AB5 P1597Q: domain 11 AB5 + P1597Q (protein)
chain: B1 chain with R62Q, K90Q, H95S, K96G
B16: AB5 Q1569R P1597H G1603K: domain 11 AB5 + Q1569R, P1597H, G1603K (protein)
chain: B1 chain with K90H, H95S
B17: AB5 P1597H: domain 11 AB5 + P1597H (protein)
chain: B1 chain with R62Q, K90H, H95S, K96G
B18: AB5 P1597A: domain 11 AB5 + P1597A (protein)
chain: B1 chain with R62Q, K90A, H95S, K96G
B19: AB5 Q1569R: domain 11 AB5 + CD loop Q1569R (protein)
chain: B1 chain with K90P, H95S, K96G
B20: AB3 P1597K S1602H: domain 11 AB3 + P1597K, S1602H (protein)
chain: B2 chain with H90K, S95H, H123D, F124K, S126T
B21: AB5 Q1569R P1597H S1602H G1603K: domain 11 AB5 + Q1569R, P1597H, S1602H, G1603K (protein)
chain: B1 chain with K90H
B22: AB5 Q1569R P1597K: domain 11 AB5 + Q1569R, P1597K (protein)
chain: B1 chain with H95S, K96G
B23: AB5 P1597K: domain 11 AB5 + P1597K (protein)
chain: B1 chain with R62Q, H95S, K96G

For one assay, the target named is IGF2 (Homo sapiens, UniProt P01344). Put plainly: SPR (Biacore T200) of recombinant IGF2R domain 11 mutants on immobilised biotinylated IGF2. In kind it is binding. The arrangement: purchased GroPep. The note with it: Table 3; 25° C., HBS-EP pH 7.4. An excerpt: Surface plasmon resonance (SPR) binding analysis of recombinant M6P/IGF2R domain 11 mutants interaction with IGF2. Kon indicates association (on) rate; koff, dissociation (off) rate; RU, response units. Binding to IGF2 assessed with BIAcore T200 using purified biotinylated IGF2 and IGF1 on a streptavidin biosensor chip. Recombinant proteins were expressed either in E. coli and/or P. pastoris. All the mutants in the FG and CD loops are on the domain 11^AB5 background for the AB loop unless otherwise stated. All experiments were carried out at 25° C. in HBS-EP buffer (pH 7.4), were repeated 2-5 times on two independent BIAcore chips. nd=not determined. Data for KD expressed as mean of each experiment, and means of kon and koff are shown.
Chain of IGF2 (P01344 25-91): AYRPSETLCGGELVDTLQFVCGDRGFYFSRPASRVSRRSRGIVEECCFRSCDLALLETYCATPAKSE
Measurements were carried out at 25° C. in HBS-EP buffer (pH 7.4) (nd=not determined, np=no protein). Data for KD expressed as mean of each experiment, and means of kon and koff are shown.
Measurements were carried out at 25° C. in MES-EP buffer, 20 mM MES pH 6.5, 150 mM NaCl, 3 mM EDTA, and 0.005% (v/v) surfactant P20). Data for KD expressed as mean of each experiment, and means of kon and koff are shown.
Final kinetic analysis of mutants by SPR was conducted using a Biacore T200 biosensor at 25° C. in either HBS-EP (10 mM HEPES pH 7.4, 150 mM NaCl, 3 mM EDTA, and 0.005% (v/v) surfactant P20) or MES-EP (20 mM MES pH 6.5, 150 mM NaCl, 3 mM EDTA, and 0.005% (v/v) surfactant P20) at a flow-rate of 40 μL min^−1. […] For the analysis of the Fc-domain 11^AB5 interaction, approximately 50 RU of a biotinylated IGF2:biotinylated ubiquitin mixture (1:8 proportion) was immobilized on the CM5-streptavidin chip. This interaction was also analysed by immobilizing the Fc-domain 11^AB5 and Fc-domain 11^AB5-RHH (or Fc-domain 11^I1572A as control) by Human Antibody Capture (monoclonal mouse anti-human IgG antibody immobilised on a CM5 chip by amine coupling, GE Healthcare) with and without human IgG1 Fc fragment (Bethyl Laboratories, UK) in the control flow cell. Increasing concentrations of IGF2^1-67, proIGF2^1-104, proIGF2^1-156 and IGF1 ranging from 0.125 to 32 nM were injected. T200 BiaEvaluation software (GE Healthcare) was used to fit the resulting curves according to a 1:1 binding model. Steady state affinities were determined using the kinetic data, taking the response average at 5 seconds before injection end and for 5 seconds average. Thermodynamic data was performed across the temperature range of 10° C. to 30° C., van't Hoff and Erying plots generated and ΔH, −TΔS and ΔG values determined as previously described.
A general note: SPR reads the build-up and loss of mass on a sensor chip optically.
Consider B1, for which the Kinetics koff was 0.008 s⁻¹.
As to B2, the Kinetics koff came to 0.012 s⁻¹.
Regarding B3, the Kinetics koff stood at 0.0193 s⁻¹ and the Kinetics kon is 5e+06 M⁻¹ s⁻¹.
For B4, the Kinetics koff stood at 0.0171 s⁻¹ and the Kinetics kon came to 2.08e+07 M⁻¹ s⁻¹.
As to B5, the Kinetics koff was 0.0096 s⁻¹ and the Kinetics kon was found to be 2.09e+06 M⁻¹ s⁻¹.
As to B6, the Kinetics koff is 0.0150 s⁻¹ and the Kinetics kon was 4.18e+06 M⁻¹ s⁻¹.
B7: the Kinetics koff came out at 0.0115 s⁻¹ and the Kinetics kon was found to be 1.12e+07 M⁻¹ s⁻¹.
In the case of B8, the Kinetics koff came out at 0.0180 s⁻¹ and the Kinetics kon was determined as 4.72e+06 M⁻¹ s⁻¹.
On the same counts, the results for B9 are 0.0046 s⁻¹ and 3.5e+06 M⁻¹ s⁻¹.
Turning to B10, the Kinetics koff amounted to 0.016 s⁻¹ and the Kinetics kon worked out at 2.01e+07 M⁻¹ s⁻¹.
As to B11, the Kinetics koff came to 0.012 s⁻¹.
Consider B12, for which the Kinetics koff worked out at 0.0058 s⁻¹ and the Kinetics kon came to 3.2e+06 M⁻¹ s⁻¹.
Take B13: the Kinetics koff was found to be 0.0073 s⁻¹ and the Kinetics kon worked out at 7.87e+06 M⁻¹ s⁻¹.
On the same counts, the results for B14 are 0.010 s⁻¹ and 1.41e+07 M⁻¹ s⁻¹.
On the same counts, the results for B15 are 0.0203 s⁻¹ and 6.53e+06 M⁻¹ s⁻¹.
On the same counts, the results for B16 are 0.0058 s⁻¹ and 6.67e+06 M⁻¹ s⁻¹.
On to B17, for which the Kinetics koff is 0.0070 s⁻¹ and the Kinetics kon worked out at 3.68e+06 M⁻¹ s⁻¹.
On the same counts, the results for B18 are 0.0174 s⁻¹ and 1.9e+06 M⁻¹ s⁻¹.
On the same counts, the results for B19 are 0.0175 s⁻¹ and 8.04e+06 M⁻¹ s⁻¹.
Regarding B20, the Kinetics koff is 0.0102 s⁻¹ and the Kinetics kon was found to be 2.74e+06 M⁻¹ s⁻¹.
Consider B21, for which the Kinetics koff came to 0.005 s⁻¹.
On to B22, for which the Kinetics koff was found to be 0.0091 s⁻¹ and the Kinetics kon turned out to be 9.59e+06 M⁻¹ s⁻¹.
As for B23, the Kinetics koff was determined as 0.0120 s⁻¹ and the Kinetics kon was 9.54e+06 M⁻¹ s⁻¹.

Still in this assay, the particulars now being: Table 4; MES-EP pH 6.5.
As for B9, the Kinetics koff worked out at 0.0029 s⁻¹ and the Kinetics kon came to 5.32e+06 M⁻¹ s⁻¹.
As to B12, the Kinetics koff was 0.0034 s⁻¹ and the Kinetics kon came out at 2.37e+06 M⁻¹ s⁻¹.
With B14, the Kinetics koff was 0.0064 s⁻¹ and the Kinetics kon was found to be 1.61e+07 M⁻¹ s⁻¹.
On the same counts, the results for B16 are 0.0051 s⁻¹ and 7.54e+06 M⁻¹ s⁻¹.
